Experimental data from the supplement of paper PMC10201428.
± gives the standard deviation of the averaged measurements.

Each sequence was assayed on VchCAST RNA-guided transposition machinery (E. coli BL21(DE3) host, lacZ target) (assay: relative integration efficiency (T-LR orientation) vs wild-type transposon end (log2 (normalized fold change)); transposon end mutated: right end (5 bp flank + 75 bp right end); higher = more efficient transposition).
Procedure, shortened: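 In E. coli BL21(DE3), a T7-driven effector plasmid was paired with a pUC57 mini-transposon donor containing 1549 left-end or 1849 right-end barcoded transposon variants. Cells grew on plates with 0.1 mM IPTG at 37°C for 18 h. Relative integration efficiency was derived from Illumina reads of genomic integration junctions against input plasmids, as a log-transformed output/input barcode fold change normalised to reference barcodes.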

Compared with “ACATTTGTTTCTACAACCATAAAATGATAATTACACCCATAAATTGATAATTATCACACCCATAAATTGATATTGCCTCTGATCATAGTCAGACCAACATTGCTACGACCCGTATTCGCACCGACAC”, “ACATTTGTTGATACACCCATAAATTGATATTGCCAACCATAAAATGATAATTATCACAACCATAAAATGATAATTACTCTGATCATAGTCAGACCAACATTGCTACGACCCGTATTCGCACCGACAC” is higher in “relative integration efficiency (log2)” value: -3.43 ± 0.18 for the first, -0.058 ± 0.3 for the second.

“ACATTTGTTGATACCACCATCAAATGGTAATTACACCCCTAAATTGATAATTATCACACCCAATTTAACTATAACGCTCTGATCATAGTCAGACCAACATTGCTACGACCCGTATTCGCACCGACAC” and “ACATTTGCTGATAGAACCATTTAATGATAATAACACCCATAAAATGATAATTATCACACCCAATTTAACTATAACGCTCTGATCATAGTCAGACCAACATTGCTACGACCCGTATTCGCACCGACAC” are within error of each other in “relative integration efficiency (log2)” value: -3.8 ± 0.81 for the first, -2.38 ± 0.95 for the second.

First: ACATTTGTTGATACCACCATAAAATGATAATTACACCCCTAAATTGATAATTATCACACCCAATTTAACTATAACGCTCTGATCATAGTCAGACCAACATTGCTACGACCCGTATTCGCACCGACAC
Second: ACATTTGTTGATACAACCATTAAATGATAATTACACCCATAAATTGATAATTGTGACACCGAATTTAACTATAACGCTCTGATCATAGTCAGACCAACATTGCTACGACCCGTATTCGCACCGACAC
The “relative integration efficiency (log2)” value of the first is lower: 0.973 ± 0.2 for the first, 1.99 ± 0.027 for the second.

First: ACATTTGTTGATACAACCATAAAAACATAATTACACCCATAAATTGATAATTATCACACCCATAAATTGATATTGCCTCTGATCATAGTCAGACCAACATTGCTACGACCCGTATTCGCACCGACAC
Second: ACATTTCTCGATACAACCATAAAATGATAATTACACCCATAAATGGATAATTATCACACCCAATTTAACTATAACGCTCTGATCATAGTCAGACCAACATTGCTACGACCCGTATTCGCACCGACAC
The “relative integration efficiency (log2)” value of the first is lower: -1.06 ± 0.19 for the first, 0.276 ± 0.061 for the second.

Going from “ACATTTGTTCATACAACCATAAAATGATAATTACCACCCATAAATTGATAATTATCACACCCATTTAACTATAACGCTCTGATCATAGTCAGACCAACATTGCTACGACCCGTATTCGCACCGACAC” to “ACATTTGTTCATACAACCATAAAATGATAATTACACCCATAAATGGATAATTATCACCCCCAATTTAACTATAACGCTCTGATCATAGTCAGACCAACATTGCTACGACCCGTATTCGCACCGACAC”, the “relative integration efficiency (log2)” value rises from -0.231 ± 0.23 to 0.23 ± 0.071.

Compared with “ACATTTGTTGATACTTCCATAAAATGATAATTACACCCATAAATTGATAATTATCACACCCATAAATTGATATTGCCTCTGATCATAGTCAGACCAACATTGCTACGACCCGTATTCGCACCGACAC”, “ACATTTGTTGATACAACCATAAAATGATAATTACTCTGACACCCATAAATTGATAATTATCACACCCATAAATTGATATTGCTCATAGTCAGACCAACATTGCTACGACCCGTATTCGCACCGACAC” is higher in “relative integration efficiency (log2)” value: -0.525 ± 0.042 for the first, 0.8247 ± 0.0022 for the second.

Compared with “ACATTTGTTGATACAACCATCAAATGGTAATTCCACCCATACATTGATAATTATCACACCCAATTTAACTATAACGCTCTGATCATAGTCAGACCAACATTGCTACGACCCGTATTCGCACCGACAC”, “ACATTTGTCGATACAACCATAAAATGATAATTACACCCATAAATTGATCATTATCACCCCCAATTTAACTATAACGCTCTGATCATAGTCAGACCAACATTGCTACGACCCGTATTCGCACCGACAC” is higher in “relative integration efficiency (log2)” value: -2.28 ± 0.36 for the first, 2.13 ± 0.24 for the second.

Compared with “ACATTTGTTGATACAACCATAAAATGATTATTACACCCATAAATTGATTATTATCACACCCATAAATTGATTTTGCCTCTGATCATAGTCAGACCAACATTGCTACGACCCGTATTCGCACCGACAC”, “ACATTTGTTGATACAACCATAAAATGATAATTACACCCATAAATTGATAATTATCCAACCCATAAATTGATATTGCCTCTGATCATAGTCAGACCAACATTGCTACGACCCGTATTCGCACCGACAC” is higher in “relative integration efficiency (log2)” value: 0.0804 ± 0.34 for the first, 0.964 ± 0.12 for the second.

First: ACATTTGTTGATACACCCATAAATTGATAATTACAACCATAAAATGATAATTATCAGTGGGTATTTAACTATAACGCTCTGATCATAGTCAGACCAACATTGCTACGACCCGTATTCGCACCGACAC
Second: ACATTTGTTGATACAACCATAAAATCATCATTACACCCATCAATTGATAATTATCCCACCCCATTTAACTATAACGCTCTGATCATAGTCAGACCAACATTGCTACGACCCGTATTCGCACCGACAC
The “relative integration efficiency (log2)” value of the first is higher: 2.58 ± 0.045 for the first, -1.08 ± 0.22 for the second.

Going from “ACATTTGTCGATACAACCCTAAAATGATAATTACACCCATAAATTGATCATTATCACCCCCAATTTAACTATAACGCTCTGATCATAGTCAGACCAACATTGCTACGACCCGTATTCGCACCGACAC” to “ACATTTGTTGATACAACCATTAAATGGTAATTCCACCCATAAATTGATAATTATCACACCCAATTTAACTATAACGCTCTGATCATAGTCAGACCAACATTGCTACGACCCGTATTCGCACCGACAC”, the “relative integration efficiency (log2)” value rises from 0.684 ± 0.37 to 2.07 ± 0.25.

Compared with “ACATTTGTTGATACACCCATAAATTGATATTGCCAACCATAAAATGATAATTATCACACCCATAAATTGATATTGCCTCTGATCATAGTCAGACCAACATTGCTACGACCCGTATTCGCACCGACAC”, “ACATTAGTCGATACAACCATAAAATGATAATTACACCCATAAATGGATCATTATCACACCCAATTTAACTATAACGCTCTGATCATAGTCAGACCAACATTGCTACGACCCGTATTCGCACCGACAC” is lower in “relative integration efficiency (log2)” value: -0.203 ± 0.43 for the first, -5.41 ± 0.28 for the second.

Going from “ACATTTGTTGATACAACCATAAAATGATAAATACACCCATAAATTGATAATAATGACACCGAATTTAACTATAACGCTCTGATCATAGTCAGACCAACATTGCTACGACCCGTATTCGCACCGACAC” to “ACATTTGTTGATACAACCATAAAATGATAATTACAACCATAAGTTGATATTTTTCACACCCATAAATTGATATTGCCTCTGATCATAGTCAGACCAACATTGCTACGACCCGTATTCGCACCGACAC”, the “relative integration efficiency (log2)” value falls from 2.26 ± 0.23 to 0.0596 ± 0.086.

Compared with “ACATTTGTTGATACAACCATAAGTTGATATTTTCACCCATAAATTGATATTGCTCACAACCATAAGTTGATATTTTCTCTGATCATAGTCAGACCAACATTGCTACGACCCGTATTCGCACCGACAC”, “ACATTTGTTGATTGAACCATAAAATGATAATTACACCCATAAATTGATAATTATCACACCCATAAATTGATATTGCCTCTGATCATAGTCAGACCAACATTGCTACGACCCGTATTCGCACCGACAC” is lower in “relative integration efficiency (log2)” value: -0.109 ± 0.43 for the first, -1.4 ± 0.71 for the second.

“ACATTTGTTGATACACCCATAAATTGATATTGCCAACCATAAAATGATAATTATCACAACCATAAAGTGATATTTACTCTGATCATAGTCAGACCAACATTGCTACGACCCGTATTCGCACCGACAC” and “ACATTTGTTGATACACCCATAAATTGATATTGCCAACCATAAAATGATAATTATCACACCCATAAATTGATAATTACTCTGATCATAGTCAGACCAACATTGCTACGACCCGTATTCGCACCGACAC” are within error of each other in “relative integration efficiency (log2)” value: -0.327 ± 0.1 for the first, -0.568 ± 0.82 for the second.

“ACATTTGTTGATACAACCATAAAATGATAATTACACCCATAAATTGATAATTATCACACCCATAAATTGATATTGCCGAGGATCATAGTCAGACCAACATTGCTACGACCCGTATTCGCACCGACAC” and “AGTAATGTTGATACAACCATAAAATGATAATTACACCCATAAATTGATAATTATCACACCCATAAATTGATATTGCCTCTGATCATAGTCAGACCAACATTGCTACGACCCGTATTCGCACCGACAC” are within error of each other in “relative integration efficiency (log2)” value: 0.294 ± 0.46 for the first, -0.0802 ± 0.26 for the second.

Compared with “ACATTTGTTGATAAAACCATACGTTGATTTTAAGAAACCATACGCTGAAATAATCACACCCATAAATTGATATTGCCTCTGATCATAGTCAGACCAACATTGCTACGACCCGTATTCGCACCGACAC”, “ACATTTGTTGATACAACCATAAAATGATAATTACACCCATAAATTGATAATTATCACACCCATAAATTGATATTGCCTCTGATCATATTTAATAATTAATTTATATATTTAAGTCAGGCACCGACAC” is higher in “relative integration efficiency (log2)” value: -3.87 ± 0.6 for the first, 0.961 ± 0.58 for the second.
